Measurements from patent publication US20250376667A1.

B1: matrix metalloproteinase 7 (MMP7) (enzyme, UniProt P09237 95-267, looked up, species assumed)
Matrilysin: YSLFPNSPKWTSKVVTYRIVSYTRDLPHITVDRLVSKALNMWGKEIPLHFRKVVWGTADIMIGFARGAHGDSYPFDGPGNTLAHAFAPGTGLGGDAHFDEDERWTDGSSLGINFLYAATHELGHSLGMGHSSDPNAVMYPTYGNGDPQNFKLSQDDIKGIQKLYGKRSNSRKK

Key:
[1] = system: control peptide comprising PCL1 (PCL1 Pep)
[2] = system: KL958 (C521S)-PCL1-HSA
[3] = system: KL958 (C521S C370S)-PCL1-HSA

Chain of control peptide comprising PCL1 (PCL1 Pep) (chain, as listed by the source): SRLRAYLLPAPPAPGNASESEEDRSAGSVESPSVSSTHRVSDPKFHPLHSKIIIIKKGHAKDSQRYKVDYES

Molecule	protease cleavage of the peptide in vitro [1]	protease cleavage in reaction buffer, immunoblot with anti-KL antibodies [2]	protease cleavage in reaction buffer, immunoblot with anti-KL antibodies [3]
kallikrein 2 (KLK2)	The ability of two proteases, kallikrein 2 (KLK2) and matrix metalloproteinase 7 (MMP7), to cleave the protease cleavable linker PCL1 was confirmed using a control peptide comprising PCL1 (PCL1 Pep)		
B1	The ability of two proteases, kallikrein 2 (KLK2) and matrix metalloproteinase 7 (MMP7), to cleave the protease cleavable linker PCL1 was confirmed using a control peptide comprising PCL1 (PCL1 Pep)	PCL1-containing KL polypeptides displayed cleavage of the linker, resulting in a shorter KL polypeptide in the presence of MMP7	PCL1-containing KL polypeptides displayed cleavage of the linker, resulting in a shorter KL polypeptide in the presence of MMP7
